B1: glmS ribozyme (parent)
chain: AUAAAAGCGCCAGAACUACAGAAAUGUAGUUGACGAGGAGGAGGUUUAUCGAAUUUUCGGCGGAUGCCUCCAAA

Holding throughout (details): with glucosamine-6-phosphate
In series [1] the parent is B1. Nature of the series: kcat; higher = faster cleavage; RNA array. The gist of the method:
(§1)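 kcat and KM were obtained from weighted Michaelis–Menten fits across concentrations of kobs values. Those came from one- or two-exponential decay fits to per-tile medians normalised to baseline and to non-cleaving reference variants. The variants were barcoded ribozymes transcribed in situ by E. coli RNA polymerase on sequenced MiSeq chips and tracked through a hybridised Cy3 probe at 37 °C, with 40 μM to 10 mM glucosamine-6-phosphate in HEPES/KCl/Mg(OAc)2 buffer flowed in.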

In series [2] the parent is B1. Nature of the series: KM; higher = weaker cofactor use; RNA array. In short, it runs like this: as §1
In series [3] the parent is B1. Kind of series: self-cleavage kobs at 40 uM GlcN6P; higher = faster cleavage; RNA array. The gist of the method:
as §1

The variants in series [4] derive from B1. Nature of the series: self-cleavage kobs at 160 uM GlcN6P; higher = faster cleavage; RNA array. In short, it runs like this: as §1
Variants of B1 are the subject of series [5]. Nature of the series: self-cleavage kobs at 640 uM GlcN6P; higher = faster cleavage; RNA array. In short, it runs like this: as §1
The variants in series [6] derive from B1. Kind of series: self-cleavage kobs at 2500 uM GlcN6P; higher = faster cleavage; RNA array. The gist of the method: as §1
The variants in series [7] derive from B1. Kind of series: self-cleavage kobs at 10000 uM GlcN6P; higher = faster cleavage; RNA array. In short, it runs like this:
as §1

± gives the standard error. For some of these results: Fewer inactive variants are shown than the library holds.

For the variant A6U G43U, the kcat (as a rule, the number of substrate molecules converted per active site and unit of time at saturation) in series [1] was less than 1e-05 s⁻¹. Besides, in series [2], the KM – broadly, the substrate concentration at which the rate is half of its maximum – stood at 6.89 ± 1.1 mM. For the same variant, in series [3], the “self-cleavage kobs at 40 uM GlcN6P” value was less than 1e-05 s⁻¹. Further, the “self-cleavage kobs at 160 uM GlcN6P” value in series [4] is less than 1e-05 s⁻¹. In series [5], the “self-cleavage kobs at 640 uM GlcN6P” value was less than 1e-05 s⁻¹.

Regarding G32U U45G, in series [1], the kcat was 0.000699 ± 0.00027 s⁻¹. Further, in series [6], the “self-cleavage kobs at 2500 uM GlcN6P” value amounted to 6.97e-05 ± 1.1e-05 s⁻¹. Also, the “self-cleavage kobs at 10000 uM GlcN6P” value in series [7] stood at 0.000203 ± 2.1e-05 s⁻¹.

Consider G37C G60A C68U, for which the kcat in series [1] was 1.98e-05 ± 7.3e-06 s⁻¹.

With A64G G66U, the kcat in series [1] worked out at 0.00159 ± 7.8e-05 s⁻¹. Besides, the KM in series [2] is 1.21 ± 0.12 mM. For the same variant, in series [4], the “self-cleavage kobs at 160 uM GlcN6P” value amounted to 0.000178 ± 5.7e-05 s⁻¹. The “self-cleavage kobs at 640 uM GlcN6P” value in series [5] stood at 0.000588 ± 0.00016 s⁻¹. In addition, the “self-cleavage kobs at 2500 uM GlcN6P” value in series [6] came to 0.00102 ± 0.00034 s⁻¹. In series [7], the “self-cleavage kobs at 10000 uM GlcN6P” value is 0.00143 ± 0.0003 s⁻¹.

With U54A U65A, the kcat in series [1] came out at 0.00834 ± 0.0013 s⁻¹. The KM in series [2] turned out to be 4.3 ± 1.1 mM. Also, the “self-cleavage kobs at 40 uM GlcN6P” value in series [3] worked out at 0.000105 ± 2.7e-05 s⁻¹. The “self-cleavage kobs at 640 uM GlcN6P” value in series [5] turned out to be 0.00105 ± 0.00019 s⁻¹. Further, the “self-cleavage kobs at 2500 uM GlcN6P” value in series [6] turned out to be 0.00254 ± 0.00097 s⁻¹. Also, in series [7], the “self-cleavage kobs at 10000 uM GlcN6P” value was 0.00595 ± 0.00078 s⁻¹.

With U54A U65G, the kcat in series [1] worked out at 0.00357 ± 0.0014 s⁻¹. In series [3], the “self-cleavage kobs at 40 uM GlcN6P” value amounted to 5.78e-05 ± 9.8e-06 s⁻¹. The “self-cleavage kobs at 160 uM GlcN6P” value in series [4] turned out to be 0.000211 ± 3.9e-05 s⁻¹. Besides, the “self-cleavage kobs at 640 uM GlcN6P” value in series [5] was found to be 0.000927 ± 0.00015 s⁻¹. In series [6], the “self-cleavage kobs at 2500 uM GlcN6P” value was found to be 0.001 ± 0.00025 s⁻¹. In addition, the “self-cleavage kobs at 10000 uM GlcN6P” value in series [7] was 0.00358 ± 0.00043 s⁻¹.

Consider A39G G44C, for which the kcat in series [1] worked out at 0.000507 ± 6.5e-05 s⁻¹. The KM in series [2] stood at 2.45 ± 0.66 mM. Moreover, the “self-cleavage kobs at 640 uM GlcN6P” value in series [5] was 0.000101 ± 1.9e-05 s⁻¹. For the same variant, the “self-cleavage kobs at 2500 uM GlcN6P” value in series [6] was 0.000327 ± 6.4e-05 s⁻¹. Besides, the “self-cleavage kobs at 10000 uM GlcN6P” value in series [7] came out at 0.000394 ± 4.8e-05 s⁻¹.

Take U30G G37C: the kcat in series [1] was found to be 1.26e-05 ± 3.7e-06 s⁻¹. The “self-cleavage kobs at 40 uM GlcN6P” value in series [3] is less than 1e-05 s⁻¹.

In the case of C11G U56G, in series [1], the kcat turned out to be 1.32e-05 ± 5.5e-06 s⁻¹. In series [3], the “self-cleavage kobs at 40 uM GlcN6P” value was less than 1e-05 s⁻¹. The “self-cleavage kobs at 640 uM GlcN6P” value in series [5] was less than 1e-05 s⁻¹.

As to G29U A52G, in series [1], the kcat is 0.00036 ± 7.1e-05 s⁻¹. Also, the KM in series [2] is 3.34 ± 1.2 mM. Moreover, the “self-cleavage kobs at 640 uM GlcN6P” value in series [5] was determined as 6.73e-05 ± 9.7e-06 s⁻¹. For the same variant, the “self-cleavage kobs at 2500 uM GlcN6P” value in series [6] worked out at 0.000127 ± 2e-05 s⁻¹. The “self-cleavage kobs at 10000 uM GlcN6P” value in series [7] came out at 0.00029 ± 3.3e-05 s⁻¹.

For the variant C16A U47G, in series [1], the kcat was determined as 0.000198 ± 3e-05 s⁻¹. For the same variant, the KM in series [2] turned out to be 0.631 ± 0.23 mM. In addition, the “self-cleavage kobs at 160 uM GlcN6P” value in series [4] came to 6.15e-05 ± 1.2e-05 s⁻¹. For the same variant, the “self-cleavage kobs at 640 uM GlcN6P” value in series [5] came out at 9.31e-05 ± 7.8e-06 s⁻¹. Further, the “self-cleavage kobs at 2500 uM GlcN6P” value in series [6] was 0.000184 ± 2.7e-05 s⁻¹. In addition, in series [7], the “self-cleavage kobs at 10000 uM GlcN6P” value came out at 0.000186 ± 2.3e-05 s⁻¹.

As to C16U U30C, the kcat in series [1] came out at 7.72e-05 ± 8.6e-06 s⁻¹. Moreover, the “self-cleavage kobs at 40 uM GlcN6P” value in series [3] is less than 1e-05 s⁻¹. Besides, the “self-cleavage kobs at 160 uM GlcN6P” value in series [4] stood at 3.52e-05 ± 1.7e-05 s⁻¹. In addition, the “self-cleavage kobs at 640 uM GlcN6P” value in series [5] was found to be 6.63e-05 ± 2.2e-05 s⁻¹. The “self-cleavage kobs at 2500 uM GlcN6P” value in series [6] is 5.88e-05 ± 8.5e-06 s⁻¹. In series [7], the “self-cleavage kobs at 10000 uM GlcN6P” value amounted to 8.45e-05 ± 9.1e-06 s⁻¹.

A36C U55A: in series [1], the kcat was less than 1e-05 s⁻¹. In series [4], the “self-cleavage kobs at 160 uM GlcN6P” value is less than 1e-05 s⁻¹.

As to G38C C67A, the kcat in series [1] was less than 1e-05 s⁻¹. Besides, the “self-cleavage kobs at 40 uM GlcN6P” value in series [3] was less than 1e-05 s⁻¹. Also, the “self-cleavage kobs at 160 uM GlcN6P” value in series [4] is less than 1e-05 s⁻¹.

Consider U31C U69G, for which the kcat in series [1] was determined as 3.99e-05 ± 1.4e-05 s⁻¹. Moreover, the “self-cleavage kobs at 2500 uM GlcN6P” value in series [6] worked out at 5.64e-05 ± 1.6e-05 s⁻¹.

As to A6C U55G, the kcat in series [1] worked out at 0.00017 ± 7.1e-06 s⁻¹. For the same variant, the KM in series [2] came to 8.25 ± 0.64 mM. The “self-cleavage kobs at 2500 uM GlcN6P” value in series [6] turned out to be 4.01e-05 ± 9.6e-06 s⁻¹. Besides, the “self-cleavage kobs at 10000 uM GlcN6P” value in series [7] is 9.3e-05 ± 1.1e-05 s⁻¹.

U57G C68G: the kcat in series [1] was found to be 4.47e-05 ± 1.1e-05 s⁻¹. Moreover, the “self-cleavage kobs at 40 uM GlcN6P” value in series [3] was 2.48e-05 ± 1.2e-05 s⁻¹. For the same variant, in series [4], the “self-cleavage kobs at 160 uM GlcN6P” value came to 4.02e-05 ± 1.5e-05 s⁻¹. The “self-cleavage kobs at 640 uM GlcN6P” value in series [5] was determined as 4.72e-05 ± 1.4e-05 s⁻¹. For the same variant, the “self-cleavage kobs at 2500 uM GlcN6P” value in series [6] is 5.88e-05 ± 1.3e-05 s⁻¹.

With C68A C71A, the kcat in series [1] was less than 1e-05 s⁻¹. Besides, the “self-cleavage kobs at 160 uM GlcN6P” value in series [4] was less than 1e-05 s⁻¹. Further, in series [7], the “self-cleavage kobs at 10000 uM GlcN6P” value is less than 1e-05 s⁻¹.

The values are drawn from the supplement of paper PMC7125110.
